Consider one substance from patent US11324837B2, “Hybrid membrane-coated nanoparticle composites and methods of making and using the same” (Portland State University, priority 2016, dated 2022).

The target of this test is T1, TAMRA-Aβ1-42 (Homo sapiens, UniProt P05067).
T1 construct: fluorophore-labeled Aβ (TAMRA-Aβ1-42)
Nature of the test: Fluorescence anisotropy of Aβ binding to AuNP surface. The following applies: intrinsic, free peptide. The text has this: Fluorescence anisotropy also confirmed Aβ binding to AuNP surface. This technique reports on the change in the molecular rotation of the dye attached to the free TAMRA-Aβ1-42 peptide and when it binds to something larger than itself under polarized light. The steady-state anisotropy (r) is derived from the following equation in which r=(IVV−GIVH)/(IVV+2GIVH), where IVV and IVH are the fluorescence intensities, the subscripts indicate the orientation of the excitation and emission polarizer's, and G=IHV/IHH is the wavelength dependent sensitivity of the instrument. In a typical experiment the intrinsic anisotropy of TAMRA-Aβ1-42 (ravg=0.12) increases in the presence of Au-SOA-PC-HT (ravg=0.35) (FIG. 18). The resulting change in anisotropy (Δr=0.23) is due to a large change in the hydrodynamic radius (size) of the small TAMRA-Aβ1-42 when it binds to the much larger Au-SOA-PC-HT nanoparticles. […] Note that Cu^II pre-incubated with TAMRA-Aβ1-42 when added to Au-SOA-PC-HT has the same 0.11 change in anisotropy (FIG. 18). Possible explanations for the additional increase in r include metal ion reassembly of peptides bound to the membrane or bridging interactions between the Au-SOA-PC-HT-TAMRA-Aβ1-42 species. Alternatively, metals could arrange TAMRA-Aβ1-42 within the membrane bilayer to slow its molecular rotation. […]

T1 sequence (P05067 672-713): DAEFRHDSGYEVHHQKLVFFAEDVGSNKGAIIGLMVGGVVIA

Take TAMRA-Aβ1-42: fluorophore-labeled Aβ: the “steady-state anisotropy ravg of TAMRA-Aβ1-42” value is reported as 0.12.
